Results from PMC3683130.

Biological target: FLAG-tagged PUD-1 (C. elegans)
Experiment: affinity purification with mass spectrometry; anti-FLAG IP (M2 beads) from worms with single-copy FLAG::PUD-1, N2 as control; eluted with 3xFLAG peptide; silver-stained bands cut and identified by LC-MS/MS

Sequence of FLAG-tagged PUD-1 (C. elegans) (main, as listed by the source): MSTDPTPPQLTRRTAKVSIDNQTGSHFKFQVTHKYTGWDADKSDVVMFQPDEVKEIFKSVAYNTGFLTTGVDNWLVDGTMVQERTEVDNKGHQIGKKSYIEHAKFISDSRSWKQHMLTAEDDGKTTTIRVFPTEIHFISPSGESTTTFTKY

Endogenous PUD-2 (natural protein) gave a stoichiometry N of 1.
